Test results published in patent US20230068783A1 (TAVOTEK BIOTHERAPEUTICS HONG KONG, published 2023).
Positions count from the first letter of the chain named.

B1: mouse monoclonal anti-human IL-1β antibody TAVO304 (antibody, V domains shown)
VH: DVQLVESGGGLVQPGGSRKLSCAASGFTFSSFGMHWVRQAPEKGLEWVAYISIGSYTVHYADTVKGRFTISRDNPKNTLFLQMTSLRSEDTAMYYCVRDDYDVTDYTMDYWGQGTSVTVSS
VL: DIVMSQSPSSLAVSTGEKVTMSCKSSQSLLNSRTRKNYLAWYQQKPGQSPKLLIYWASTRESGVPDRFTGSGSGTDFTLTIGSVQAEDLAVYYCKQTYNFPTFGGGTKLEIK
notes: Mouse monoclonal antibody from hybridoma screening
B2: Rhesus monkey IL-1β (ligand, UniProt P48090 117-269, looked up)
chain: APVRSLHCTLRDAQLKSLVMSGPYELKALHLQGQDLEQQVVFSMSFVQGEESNDKIPVALGLKAKNLYLSCVLKDDKPTLQLESVDPKNYPKKKMEKRFVFNKIEINNKLEFESAQFPNWYISTSQAENMPVFLGGTRGGQDITDFTMQFVSS
B3: TAVO7376 (humanized IgG1 antibody, 304VH1 with 304VL1) (antibody, V domains shown)
VH: EVQLVESGGGLVQPGGSLRLSCAASGFTFSSFGMHWVRQAPGKGLEWVAYISIGSYTVHYADSVKGRFTISRDNAKNSLYLQMNSLRDEDTAVYYCVRDDYDVTDYTMDYWGQGTTVTVSS
VL: DIQMTQSPSSLSASVGDRVTITCKSSQSLLNSRTRKNYLAWYQQKPGKAPKLLIYWASTRESGVPSRFSGSGSGTDFTLTISSLQPEDFATYYCKQTYNFPTFGQGTKLEIKR
notes: Humanized IgG1
B4: TAVO7377 (humanized IgG1 antibody, 304VH1 with 304VL2) (antibody, V domains shown)
VH: B3 VH
VL: B3 VL with I21M, L84V, F89L
notes: Humanized IgG1

How the values were obtained:
[1] = biological target: T1, recombinant human IL-1β (R&D systems) (human, UniProt P01584 117-269); experiment: cell-based or functional assay
[2] = biological target: B2; experiment: cell-based or functional assay
[3] = biological target: T2, mouse IL-1β (mouse, UniProt P10749 118-269); experiment: ELISA, plate coated with mouse IL-1β
T2 sequence (looked up): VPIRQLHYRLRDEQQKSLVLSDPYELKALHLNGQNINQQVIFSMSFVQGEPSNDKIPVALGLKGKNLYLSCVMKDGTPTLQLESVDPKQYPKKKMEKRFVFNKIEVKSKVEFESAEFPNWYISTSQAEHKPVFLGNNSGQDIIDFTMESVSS
Description: (§1) By hybridoma screening, TAVO304 was identified as a mouse anti-human IL-1β antibody. ELISA-based binding assay was employed to evaluate TAVO304 binding to recombinant human IL-1β. In this assay, 1 μg/ml recombinant human IL-1β (R&D systems) were coated on ELISA plate. Increasing concentrations of TAVO304 antibodies were applied on the plate and their binding to the recombinant human IL-1P were detected by HRP-conjugated anti-mouse secondary antibody.
(§2) The binding of TAVO304 to mouse and Rhesus monkey IL-1β were also evaluated in similar ELISA assay by coating the plate with mouse and Rhesus monkey IL-1β respectively.

[4] = biological target: B2; experiment: ELISA, plate coated with Rhesus monkey IL-1β
Description: as §1, §2

[5] = biological target: T1, recombinant human IL-1β (R&D systems); experiment: ELISA, 1 µg/ml recombinant human IL-1β coated, HRP anti-mouse secondary antibody
Description: as §1

[6] = biological target: T3, IL-1β receptor IL-1R on the surface of HEK-Blue IL-1β cells (UniProt P14778 18-569, limits assumed); experiment: cell-based or functional assay
T3 sequence (looked up): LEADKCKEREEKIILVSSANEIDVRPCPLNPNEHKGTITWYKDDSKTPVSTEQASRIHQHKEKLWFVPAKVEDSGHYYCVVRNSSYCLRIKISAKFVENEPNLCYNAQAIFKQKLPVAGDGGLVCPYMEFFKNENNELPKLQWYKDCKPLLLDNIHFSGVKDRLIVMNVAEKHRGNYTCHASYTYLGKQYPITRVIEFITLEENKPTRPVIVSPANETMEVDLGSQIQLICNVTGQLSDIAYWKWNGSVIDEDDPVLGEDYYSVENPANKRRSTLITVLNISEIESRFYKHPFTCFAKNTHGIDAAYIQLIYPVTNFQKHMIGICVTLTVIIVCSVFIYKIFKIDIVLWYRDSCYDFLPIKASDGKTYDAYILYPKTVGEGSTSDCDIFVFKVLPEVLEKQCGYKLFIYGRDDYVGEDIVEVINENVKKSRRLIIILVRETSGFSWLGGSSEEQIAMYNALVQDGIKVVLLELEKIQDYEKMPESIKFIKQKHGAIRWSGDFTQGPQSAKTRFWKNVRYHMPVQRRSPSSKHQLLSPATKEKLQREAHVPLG

[7] = biological target: T4, human IL-1α (human, UniProt P01583 113-271); experiment: ELISA with purified recombinant protein
T4 construct: Purified recombinant protein
T4 sequence (looked up): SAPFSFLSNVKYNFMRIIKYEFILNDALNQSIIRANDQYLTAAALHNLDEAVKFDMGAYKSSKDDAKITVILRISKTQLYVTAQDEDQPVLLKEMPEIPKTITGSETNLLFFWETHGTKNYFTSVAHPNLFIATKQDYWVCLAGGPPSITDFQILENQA
Description: To evaluate the binding specificity, cytokines homologous to IL-1β such as IL-1α were evaluated for binding to humanized antibodies in ELISA-based binding assay with purified recombinant protein.

| Binder | IC50 of neutralizing human IL-1β driven reporter gene expression, HEK-Blue IL-1β reporter assay [1] | fold potency against reference antibody refAb-1 in IL-1β inhibition, HEK-Blue IL-1β reporter assay [1] | IC50 of neutralizing rhesus monkey IL-1β driven reporter gene expression, HEK-Blue IL-1β reporter assay [2] | binding result [3] | EC50 [4] | EC50 [5] | EC50 of reporter gene (SEAP) expression in HEK-Blue IL-1β reporter assay [6] | IC50 of blocking human IL-1β-mediated IL-6 release from MRC-5 cells [1] | binding result [7] |
| --- | --- | --- | --- | --- | --- | --- | --- | --- | --- |
| B1 | 0.12 µg/mL | > 6 fold | 0.0036 µg/mL | no binding | 0.0122 µg/mL | 0.0036 µg/mL | – | – | – |
| B2 | – | – | – | – | – | – | 0.00016 µg/mL | – | – |
| B3 | ~0.09 µg/mL | – | ~0.018 µg/mL | – | – | – | – | ~0.05 µg/mL | no binding (tested: 1 ug/mL) |
| B4 | ~0.09 µg/mL | – | ~0.018 µg/mL | – | – | – | – | ~0.05 µg/mL | no binding (tested: 1 ug/mL) |
